The text below walks through data of paper PMC8562663.

For assay [1], the target named is abMltA triple mutant (D151K, Y162K or Y162W, E164K). Nature of the assay: SEC-MALS. As to conditions: read off a plot. For orientation: In gel filtration, larger molecules generally elute earlier.
In assay [2] the target is membrane-bound lytic murein transglycosylase A (MltA) from Acinetobacter baumannii, N-terminally truncated (Gly23-Asn388), wild type (Acinetobacter baumannii). Nature of the assay: SEC-MALS; Ni-NTA-purified protein on Superdex 200 10/300, 20 mM Tris-HCl pH 8.0, 150 mM NaCl, 0.3 ml/min, 25°C; DAWN TREOS detector; self-association.

“membrane-bound lytic murein transglycosylase A (MltA) from Acinetobacter baumannii, N-terminally truncated (Gly23-Asn388), wild type D151K; Y162W; E164K” had an other: molecular mass (MALS) in assay [1] of 45000 Da.

“membrane-bound lytic murein transglycosylase A (MltA) from Acinetobacter baumannii, N-terminally truncated (Gly23-Asn388), wild type (enzyme)”: the stoichiometry N (usually the number of molecules, sites or subunits per partner or assembly) in assay [2] was 2.
